The target of assay [1] is HLA-A*68:02. Kind of assay: IEDB peptide-MHC binding, purified MHC/competitive/radioactivity; filed as Kd, often an IC50 or EC50 that approximates it; ≥ and ≤ were set here for values at or beyond the usual limits of such assays.
In assay [2] the target is HLA-A*32:01. The assay is described as above.
The target in assay [3] is HLA-B*51:01. The description is as above.
The target of assay [4] is HLA-A*30:01. The description is as above.
Assay [5] deals with HLA-A*02:03. Described as above. The following applies: source organism: Trypanosoma cruzi.
For assay [6], the target named is HLA-A*02:02. Described as above. The following applies: source organism: Trypanosoma cruzi.
Assay [7] has as its target HLA-A*02:06. The description is as above.
Assay [8] deals with HLA-B*07:02. The description is as above.
Assay [9] concerns the target HLA-B*35:01. Described as above.
The target of assay [10] is HLA-B*53:01. The assay is described as above.
For assay [11], the target named is HLA-A*01:01. Kind of assay: IEDB peptide-MHC binding, purified MHC/direct/fluorescence; filed as Kd, often an IC50 or EC50 that approximates it; ≥ and ≤ were set here for values at or beyond the usual limits of such assays. The following applies: source organism: Mycobacterium tuberculosis variant bovis BCG str. Pasteur 1173P2.
For assay [12], the target named is HLA-A*26:01. Described as above. The settings on record: source organism: Mycobacterium tuberculosis.
Assay [13] addresses HLA-A*01:01. Kind of assay: IEDB peptide-MHC binding, purified MHC/competitive/radioactivity; filed as Kd, often an IC50 or EC50 that approximates it; ≥ and ≤ were set here for values at or beyond the usual limits of such assays. The following applies: source organism: Lymphocytic choriomeningitis virus (strain Armstrong).
Assay [14] addresses HLA-A*29:02. Described as above. The settings on record: source organism: Lymphocytic choriomeningitis virus (strain Armstrong).
The target in assay [15] is HLA-A*26:01. The assay is described as above.
The target of assay [16] is HLA-A*30:02. The description is as above. The following applies: source organism: Lymphocytic choriomeningitis virus (strain Armstrong).
In assay [17] the target is HLA-B*08:01. Described as above. The following applies: source organism: Vaccinia virus WR.
Assay [18] has as its target HLA-A*02:01. Kind of assay: IEDB peptide-MHC binding, purified MHC/competitive/fluorescence; filed as Kd, often an IC50 or EC50 that approximates it; ≥ and ≤ were set here for values at or beyond the usual limits of such assays. The settings on record: source organism: Vaccinia virus WR.
[19] abbreviates: source organism: Vaccinia virus WR.
The mark [20] stands for this setting: source organism: Dengue virus 4 Philippines/H241/1956.
The mark [21] stands for this setting: source organism: Dengue virus 2 Jamaica/1409/1983.
The mark [22] stands for this setting: source organism: Dengue virus 1 Brazil/97-11/1997.
Setting [23] is: source organism: Trypanosoma cruzi.
[24] abbreviates: source organism: Dengue virus 3 Martinique/1243/1999.
The mark [25] stands for this setting: source organism: Lymphocytic choriomeningitis virus (strain Armstrong).

A value given as a limit tells only on which side of the number the result lay.

Take SLTCEVDAL: the Kd (in general, a measure of binding affinity in units of concentration) in [1] (source organism: Homo sapiens) stood at 3120 nM.

For ITVYFRRTI, the Kd in assay [2] (setting [19]) was 25.9 nM.

For the sequence GPVLTLWEGN, the Kd in [2] (setting [20]) came to 1550 nM.

With FAAGLLLRKL, in [3] (setting [21]), the Kd is 11600 nM.

For YMMNIYLNF, the Kd in assay [2] (setting [19]) amounted to 2.93 nM.

With GKTRRYLPAI, in [4] (setting [22]), the Kd was 670 nM.

As for LTNEIYASI, the Kd in [2] (setting [19]) was 12.9 nM.

Turning to FANNKFTLV, the Kd in [5] stood at 1.36 nM; in assay [1] (setting [23]), 75 nM; in [6] it was 64.1 nM; in assay [7] (setting [23]), 3.05 nM.

With YPLAIPVTM, the Kd stood at 44.6 nM in [8] (setting [20]), 1.93 nM in assay [9] (setting [20]), 38.7 nM in [3] (setting [20]) and 3.47 nM in assay [10] (setting [20]).

Consider DVAAMSGYY, for which the Kd in [11] worked out at 318 nM; in assay [12], 3 nM.

For DTRTQTWMSA, in [2] (setting [24]), the Kd came out at 5740 nM.

Regarding AAAWYLWEVK, the dissociation constant (Kd) in [2] (setting [21]) came out at 2060 nM.

In the case of HPGFTVIAL, the Kd in assay [8] (setting [22]) was 3.14 nM; in assay [9] (setting [22]), 1.54 nM; in assay [10] (setting [22]) it was 29.4 nM.

Turning to MTMILFLKL, the Kd in [2] (setting [19]) is 248 nM.

In the case of LTYVVIAILT, in [1] (setting [21]), the Kd amounted to 173 nM.

TMEAMRIMGI: in assay [1] (source organism: Homo sapiens), the Kd was found to be 21.9 nM.

For TPMMRHTIEN, the Kd in assay [8] (setting [22]) came out at 1940 nM.

For the sequence RTKSKILFG, in assay [4] (setting [19]), the Kd amounted to 10 nM.

With RGRLLAAGK, in assay [4] (setting [19]), the Kd stood at 125 nM.

Turning to CTREEFTRK, the Kd in [4] (setting [21]) came out at 64.4 nM.

With MVNGVVKLL, the Kd in [1] (source organism: Dengue virus 1 Singapore/S275/1990) came out at 60.2 nM.

For the sequence NANAYSGKY, the Kd in assay [13] was 515 nM; in assay [2] (setting [25]) it was at least 50000 nM; in [4] (setting [25]), at least 37600 nM; in assay [14], 1070 nM; in assay [15] (setting [25]) it was 4310 nM; in assay [16], 2.71 nM.

In the case of STRDGEPLM, the Kd in assay [4] (setting [20]) turned out to be 71.6 nM; in [15] (setting [20]), 8190 nM.

With DPRRCLKPV, the Kd in [8] (setting [22]) was 225 nM.

Take KQNMLHVII: the Kd in assay [2] (setting [19]) is 2.12 nM.

On to KVLRPTPRG, for which the Kd in assay [4] (source organism: Dengue virus 4 Dominica/814669/1981) was found to be 300 nM.

Turning to YVVIGILTLA, the Kd in assay [1] (setting [24]) is 123 nM; in assay [7] (setting [24]), 47.4 nM.

In the case of RTKPISMYF, the Kd in assay [4] (source organism: Vaccinia virus Copenhagen) is 0.598 nM.

Regarding MADVPLQWI, the Kd in assay [3] (source organism: Dengue virus 3 Singapore/8120/1995) turned out to be 2270 nM.

On to TLKQRLTNL, for which the Kd in assay [17] was found to be 1.74 nM; in [18], 1390 nM.

Take QPHQLWTTL: the Kd in [8] (setting [22]) was 3.43 nM.

For SYRTRAINK, in assay [4] (setting [19]), the Kd stood at 1020 nM.

Take FTILALFLAH: the Kd was at least 24900 nM in assay [9] (setting [24]) and at least 20900 nM in [15] (setting [24]).

Consider KLYTIVSTL, for which, in [2] (setting [19]), the Kd worked out at 7.12 nM.

Take MPVMKRYSAP: the Kd in assay [8] (setting [20]) was 9340 nM; in [9] (setting [20]), 502 nM; in assay [3] (setting [20]), at least 69600 nM; in [10] (setting [20]) it was 16000 nM.

In the case of STRVPNYNL, in assay [4] (setting [20]), the Kd was 6.26 nM.

The record behind these values is the Immune Epitope Database (IEDB).
